Measurements reported in publication PMC7597677.

Biological target: cGMP phosphodiesterase 6 (PDE6) hetero-tetramer, native bovine (bovine) (UniProt P11541)
Experiment: cryo-EM structure

Chain of UniProt P11541 (P11541 whole entry, chain 1 of 3): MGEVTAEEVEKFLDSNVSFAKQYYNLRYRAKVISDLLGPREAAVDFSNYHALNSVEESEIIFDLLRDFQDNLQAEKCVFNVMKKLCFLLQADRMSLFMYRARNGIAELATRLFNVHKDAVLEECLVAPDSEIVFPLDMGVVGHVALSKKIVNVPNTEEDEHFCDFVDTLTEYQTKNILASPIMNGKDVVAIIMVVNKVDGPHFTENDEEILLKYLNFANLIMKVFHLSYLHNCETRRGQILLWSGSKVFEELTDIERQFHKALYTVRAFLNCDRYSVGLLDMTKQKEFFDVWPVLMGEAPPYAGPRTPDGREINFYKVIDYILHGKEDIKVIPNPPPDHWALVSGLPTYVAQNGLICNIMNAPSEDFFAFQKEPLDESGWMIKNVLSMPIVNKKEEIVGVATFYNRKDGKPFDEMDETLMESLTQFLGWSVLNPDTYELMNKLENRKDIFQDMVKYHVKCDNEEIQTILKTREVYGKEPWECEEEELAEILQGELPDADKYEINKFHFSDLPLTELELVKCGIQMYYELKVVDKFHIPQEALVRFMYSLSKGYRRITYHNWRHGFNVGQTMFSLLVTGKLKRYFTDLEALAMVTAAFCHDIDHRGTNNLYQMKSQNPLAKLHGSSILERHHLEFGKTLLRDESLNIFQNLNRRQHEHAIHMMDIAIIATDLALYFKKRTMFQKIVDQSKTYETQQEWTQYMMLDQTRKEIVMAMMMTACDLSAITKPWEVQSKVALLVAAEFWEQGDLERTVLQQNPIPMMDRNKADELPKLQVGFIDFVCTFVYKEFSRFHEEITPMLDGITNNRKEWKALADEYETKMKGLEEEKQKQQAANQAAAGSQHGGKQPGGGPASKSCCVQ
Chain of UniProt P11541 (P23439 whole entry, chain 2 of 3, further chain): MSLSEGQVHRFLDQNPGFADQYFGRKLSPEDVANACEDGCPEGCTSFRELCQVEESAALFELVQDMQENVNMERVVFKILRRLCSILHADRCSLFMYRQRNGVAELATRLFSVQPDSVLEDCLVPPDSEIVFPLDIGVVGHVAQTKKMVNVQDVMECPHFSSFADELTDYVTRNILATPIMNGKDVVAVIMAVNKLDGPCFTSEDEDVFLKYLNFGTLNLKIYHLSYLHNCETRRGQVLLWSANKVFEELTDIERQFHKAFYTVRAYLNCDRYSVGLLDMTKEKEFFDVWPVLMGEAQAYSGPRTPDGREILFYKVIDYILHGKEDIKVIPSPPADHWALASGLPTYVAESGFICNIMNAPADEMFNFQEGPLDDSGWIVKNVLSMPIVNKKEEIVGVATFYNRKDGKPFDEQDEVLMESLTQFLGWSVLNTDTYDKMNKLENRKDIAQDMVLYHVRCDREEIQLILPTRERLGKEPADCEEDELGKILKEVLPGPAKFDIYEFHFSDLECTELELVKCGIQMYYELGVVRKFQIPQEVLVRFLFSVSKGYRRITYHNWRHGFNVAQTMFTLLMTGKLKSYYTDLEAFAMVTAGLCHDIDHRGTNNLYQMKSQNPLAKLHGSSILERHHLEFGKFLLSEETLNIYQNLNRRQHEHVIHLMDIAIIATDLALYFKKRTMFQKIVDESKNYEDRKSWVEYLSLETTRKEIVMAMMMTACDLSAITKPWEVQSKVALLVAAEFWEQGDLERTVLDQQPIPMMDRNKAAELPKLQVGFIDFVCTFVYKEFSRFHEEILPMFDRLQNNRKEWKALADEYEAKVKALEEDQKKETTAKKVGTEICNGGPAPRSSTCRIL
Chain of UniProt P11541 (P04972 whole entry, chain 3 of 3, further chain): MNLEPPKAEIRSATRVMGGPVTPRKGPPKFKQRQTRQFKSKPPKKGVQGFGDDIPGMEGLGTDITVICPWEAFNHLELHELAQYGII

“1D4-tagged recombinant GαT subunit (R174C, Q200L), GTP-bound (from UniProt P04695 1-350) (natural protein)” showed a stoichiometry N (GαT·GTP per PDE6 hetero-tetramer) of 2.
